Measurements taken from paper PMC12559291.
Values joined by “and” are separate entries in the source; they are usually repeats but may differ in a detail not shown here. Equal values may be shown once.

Key:
[1] = molecular target: galectin-3 (Gal3), human recombinant, made as Gal3-TEV-6xHis and freed of the tag by TEV protease (human) (UniProt P17931); assay: negative stain EM; Gal3 or Gal3∆Nter (4 μM, 2 h at 21 °C) on inactive rat α5β1 integrin in nanodiscs held on cobalt beads, washed, eluted with 50 μM I3; the eluted particles counted as monomers or ring-shaped oligomers
[2] = molecular target: α5β1 integrin purified from rat liver (rat) (UniProt P49134); assay: cryo-EM structure; rat α5β1 integrin in GSL-containing nanodiscs on cobalt beads, sialidase-treated, 4 μM Gal3 for 2 h at 21 °C, eluted with 10 mM EDTA and vitrified at once; three subsets at 7.4, 8.5 and 7.6 Å; Gal3 CRDs (PDB 1KJL) fitted as rigid bodies
[3] = molecular target: galectin-3 (Gal3), human recombinant, made as Gal3-TEV-6xHis and freed of the tag by TEV protease (human) (UniProt P17931); assay: as above
[4] = molecular target: galectin-3 (Gal3), human recombinant, made as Gal3-TEV-6xHis and freed of the tag by TEV protease (human) (UniProt P17931); assay: negative stain EM; lactose-washed RPE-1 cells with exogenous Gal3 (50 μg/mL) for 30 min at 4 °C; surface-bound Gal3 eluted with I3; 2D classification of the eluted particles in cryoSPARC
[5] = molecular target: α5β1 integrin purified from rat liver (rat) (UniProt P49134); assay: single-molecule photobleaching (TIRF); sialidase-treated rat α5β1 integrin in biotinylated peptidiscs complexed with 4 μM Gal3-Cy3 on cobalt beads, eluted with EDTA, immobilised on neutravidin-coated glass; 21 °C
[6] = molecular target: α5β1 integrin purified from rat liver (rat) (UniProt P49134); assay: cryo-EM structure; rat α5β1 integrin in peptidiscs on cobalt beads, sialidase-treated, 4 μM Gal3 for 2 h at 21 °C, eluted with 10 mM EDTA and vitrified at once; 6.9 Å

percent of eluted Gal3 particles that are ring-shaped oligomers [1]: 40%
stoichiometry N [2]: 2 and 3 and 4
stoichiometry N [3]: 2 and 3 and 4
percent of oligomer particles classed as dimers [4]: 37%
percent of oligomer particles classed as tetramers [4]: 22%
percent of oligomer particles classed as trimers [4]: 41%
stoichiometry N [4]: 2 and 3 and 4
stoichiometry N [5]: < 4
stoichiometry N [6]: 2
Substance: galectin-3 (Gal3), human recombinant, made as Gal3-TEV-6xHis and freed of the tag by TEV protease (from UniProt P17931 1-250) (natural protein)
